From the nanobody polyreactivity screen of Harvey et al. (2022)

Experiment: yeast display, Sf9 membrane polyspecificity reagent, FACS + sequencing; frameworks hold sequencing errors
Outline: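 In a synthetic yeast display library (Saccharomyces cerevisiae BJ5465), nanobody expression was induced with galactose for 36–48 hours. FACS gates were set low and high (top ~1%) using anti-HA fluorescence for expression and streptavidin fluorescence for binding of the Sf9 membrane reagent. Each polyreactivity label is drawn from the gate of origin.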
For “QVQLVESGGGLVQAGGSLRLSCAASGFIFRYYAMGWYRQAPGKERELVAAISSGGGTYYADSVKGRFTISRDNAKNTVYLQMNSLKPEDTAVYYCNKASTSYYRFNYWGQGTQVTVSS”, the “polyreactivity (PSR sort gate)” value was “high polyreactivity”.
For “QVQLVESGGGLVQAGGSLRLSCAASGFIFRYYAMGWYRQAPGKERELVAAISWSGGSTYYADSVKGRFTISRDNAMNTVYLQMNSLKPEDTAVYYCAADRYAILFYAEDYWGQGTQVTVSS”, the “polyreactivity (PSR sort gate)” value was “low polyreactivity”.
For “QVQLVESGGGLVQAGGSLRLSCAASGFIFRYYAMGWYRQAPGKERELVAAISWSGGTTYYADSVKGRFTISRDNAKNTVYLQMNSLKPEDTAVYYCAARVARISVPYDYWGQGTEVTVSS”, the “polyreactivity (PSR sort gate)” value was “low polyreactivity”.
In the case of “QVQLVESGGGLVQAGGSLRLSCAASGFIFRYYAMGWYRQAPGKERELVAAITSGGASTYYADSVKGRFTISRDNAKNTVYLQMNSLKPEDTAVYYCAADTSSYSEYDYWGQGTQVTVSS”, the “polyreactivity (PSR sort gate)” value is reported as “low polyreactivity”.
For “QVQLVESGGGLVQAGGSLRLSCAASGFIFRYYAMGWYRQAPGKERELVARITPRGGRTYYADSVKGRFTISRDNAKNTVYLQMNSLKPEDTAVYYCAAVYPVLDEFGYWGQGTQVTVSS”, the “polyreactivity (PSR sort gate)” value was “high polyreactivity”.
In the case of “QVQLVESGGGLVQAGGSLRLSCAASGFIFRYYDMGWYRQAPGKERELVAAISWSGCSTYYADSVKGRFTISRDNAKNTVYLQMNSLKPEYTAVYYCAAERYAMLFYAEDYWGQGTQVTVSS”, the “polyreactivity (PSR sort gate)” value is reported as “low polyreactivity”.
With “QVQLVESGGGLVQAGGSLRLSCAASGFIFRYYTMGWYRQAPVKERELVASITRSGGSTYYADSVKGRFTISRDNGKNTVYLQMNSLKPEDTAVYYCAAVVYLRFRNSYWGQGTQVTVSS” the “polyreactivity (PSR sort gate)” value was “high polyreactivity”.
In the case of “QVQLVESGGGLVQAGGSLRLSCAASGFIFSANDMGGYRQAPGKERELVADIDSSGRTNYADSVKGRFTISRDNAKNTVYLQMNSLNPEDTAVYYCATPPDDKGGGYLGYDYWGQGTEVTVSS”, the “polyreactivity (PSR sort gate)” value is reported as “low polyreactivity”.
For “QVQLVESGGGLVQAGGSLRLSCAASGFIFSFDNAMGWYRQAPGKERELVAAISSGTTTHYADSVKGRFTISRDNAKNTVYLQMNSLKREDTAVYYCAAGTATDVASIGATKDYDYWGQGTQGTVSS”, the “polyreactivity (PSR sort gate)” value was “low polyreactivity”.
In the case of “QVQLVESGGGLVQAGGSLRLSCAASGFIFSFYVMGWYRQAPGKERELVAAISTSGASTYYADSVKGRFTISRDNAKNTVYLQMNSLKPEDTAVFYCNVVYRYGGYNYWGQGTQVTVSS”, the “polyreactivity (PSR sort gate)” value is reported as “high polyreactivity”.
With “QVQLVESGGGLVQAGGSLRLSCAASGFIFSGNAMGWYRQAPGKEREFVAAISTSAGTTNYADSVKGRFTISRDNAKNTVYLQMNSLKPEDTAVYYCAARSTRRRIYGYWGQGTQVTVSS” the “polyreactivity (PSR sort gate)” value was “high polyreactivity”.
For “QVQLVESGGGLVQAGGSLRLSCAASGFIFSGYAMGWYRQAPGKERELVAAIRWSTGSTYYADSVKGRFTISRDNAKNTVYLQMNSLKPEDTAVYYCNAYRYQWAQSTEYDYWGQGTQVTVSS”, the “polyreactivity (PSR sort gate)” value was “high polyreactivity”.
In the case of “QVQLVESGGGLVQAGGSLRLSCAASGFIFSGYAMGWYRQAPGKERELVAAISGGGSTYYADSVKGRFTSSRDNAKNTVYLQMNNLKPEETADYYCAARVYWSVRYYYWGQGTQVTVSS”, the “polyreactivity (PSR sort gate)” value is reported as “high polyreactivity”.
In the case of “QVQLVESGGGLVQAGGSLRLSCAASGFIFSGYAMGWYRQAPGKERELVAAISTRGGRTYYADSVKGRFTISRDNAKNTVYLQMNSLKPEDTAVYYCAADSLYPELDYWGQGTQVTVSS”, the “polyreactivity (PSR sort gate)” value is reported as “high polyreactivity”.
For “QVQLVESGGGLVQAGGSLRLSCAASGFIFSHNAMGWYRQAPGKERELVAAIDYIDGSTYYADSVKGRFTISRDNAKNTVYLQMNSLKPEDTAVYYCAADGLFYWWHYGYWGQGTQVTVSS”, the “polyreactivity (PSR sort gate)” value was “low polyreactivity”.
In the case of “QVQLVESGGGLVQAGGSLRLSCAASGFIFSHNAMGWYRQAPGKERELVAAIDYIDGSTYYADSVKGRFTISRDNAKYTVYLQMNSLIPEDTAVYDCAADGLFYWWHYGYWGQGSQVTVSS”, the “polyreactivity (PSR sort gate)” value is reported as “low polyreactivity”.
In the case of “QVQLVESGGGLVQAGGSLRLSCAASGFIFSHYAMGWYRQSPGKEREFVATSSKRGGSTTYADSVKGRFTISRDNAKNTVYLQMNSLKPEDTAVYYCAADRYRSFERYDYWGQGTQVTVSS”, the “polyreactivity (PSR sort gate)” value is reported as “high polyreactivity”.
In the case of “QVQLVESGGGLVQAGGSLRLSCAASGFIFSKNAMGWYRQAPGKERELVARITRRVGSTYYADSVKGRFTISRDNAKNTVYIQMNSLKPEDTAVYYCAVLPRVKDGTGGDYWGQGTQVTVSS”, the “polyreactivity (PSR sort gate)” value is reported as “high polyreactivity”.
In the case of “QVQLVESGGGLVQAGGSLRLSCAASGFIFSKYAMGWYRQAPGKERELVAAISTSGASTYYADSVKGRFTISRDNAKNTVYLQMNSLKPEDTAVYYCNVPRYSPIRNYDYWGQGTQVTVSS”, the “polyreactivity (PSR sort gate)” value is reported as “high polyreactivity”.
In the case of “QVQLVESGGGLVQAGGSLRLSCAASGFIFSKYGMGWYRQAPGKERELVAAISIRGGNTYYADSVKGRFTISRDNAKNTFYLQMYSLKPEDTAVYYCAAGLRAYPYGTRSGVYYYWGQGTQVTVSS”, the “polyreactivity (PSR sort gate)” value is reported as “high polyreactivity”.
For “QVQLVESGGGLVQAGGSLRLSCAASGFIFSLYAMGWYRQAPGKERELVAAITRSGGSTYYADSVKGRFTISRDNAKNTVYLQMNSLKPEDTAVYYCAASRGRGGYGFDYWGQGTQVTVSS”, the “polyreactivity (PSR sort gate)” value was “high polyreactivity”.
For “QVQLVESGGGLVQAGGSLRLSCAASGFIFSNNAMGWSRQAPGKERELVAAITSSGGRTYYADSVKGRFTISRDNAKNTVYLLMNSLKPEDTAVYYCAAARYDIMGYWGQGTQVTVSS”, the “polyreactivity (PSR sort gate)” value was “high polyreactivity”.
For “QVQLVESGGGLVQAGGSLRLSCAASGFIFSNYAMGWYRQAPGKERELVARISSSGGSTYYADSVKVRFTISRDIAKNTVYLQMNSLKPEVTAVYYCAAGFNLPAWGWAYYYWGQGTQVTVSS”, the “polyreactivity (PSR sort gate)” value was “high polyreactivity”.
With “QVQLVESGGGLVQAGGSLRLSCAASGFIFSPYAMGWYRQAPGKVRELVAAISRRGGSTYYADSVKGRFTISRDNAKNTVYLQMNSLKPEDTAVYYCAAVYGASQVDYDYWGQGTQVTVSS” the “polyreactivity (PSR sort gate)” value was “high polyreactivity”.
With “QVQLVESGGGLVQAGGSLRLSCAASGFIFSQYAMGWYRQAPGKERELVAAISYRGGSTYYADSVKGRFTISRDNAKNTVYLQMNSLKPEDTAVYYCNAGRRSQTYLGTCDYWGQGTQVTVSS” the “polyreactivity (PSR sort gate)” value was “high polyreactivity”.
For “QVQLVESGGGLVQAGGSLRLSCAASGFIFSRNAMGWYRQAPGNERDLVAAISLRGGSTYYTDSVKGRFTISRDNAKNTVYLQMISLKPEDTAVYYCAAVSGRYLTRDGYWGQGTQVTVSS”, the “polyreactivity (PSR sort gate)” value was “high polyreactivity”.
With “QVQLVESGGGLVQAGGSLRLSCAASGFIFSRYAKGWSRPAPGKERELVAAITRGGGDTYYADSVKGRFTISRDNAKNTVYLQMNSLKPEDTAVYYCNARYRRYTTRFGAMDYWGQGTQVTVSS” the “polyreactivity (PSR sort gate)” value was “high polyreactivity”.
With “QVQLVESGGGLVQAGGSLRLSCAASGFIFSRYAMGCYSPAPGKVIELVAAISSRGGSTYYADSVKGRFTISRDNAKNTVYLQMNSLKPEDTAVYYCAARGPTFGVDYGYWGQGTQVTLSS” the “polyreactivity (PSR sort gate)” value was “high polyreactivity”.
For “QVQLVESGGGLVQAGGSLRLSCAASGFIFSRYAMGWYRQAPGKERELGATINTNGGSTYYAYSVKGRFTISRDNAKNTVYLQMNSLKPEDTAVYYCNAKYQALQRSWGRYDYWGQGTQVTVSS”, the “polyreactivity (PSR sort gate)” value was “low polyreactivity”.
In the case of “QVQLVESGGGLVQAGGSLRLSCAASGFIFSRYAMGWYRQAPGKERELVAAITSGGGTYSADSVKGRFTISRDNAKNTVYLQMNSLKPEDTAVYYCAAGYGPTSTSSVRITAGDHWGQGTQVTVSS”, the “polyreactivity (PSR sort gate)” value is reported as “low polyreactivity”.
